Data on 94 variants can be found in the supplement of paper PMC10567573.

B1: SPOPL (parent)
chain: PDDKLTLFCEVSVVQDSVNISGHT
B2: KLHL14 (parent)
chain: NETGYLSSVECYNLETNEWRYVSS
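Note: lentivirally expressed fusions sorted by FACS into six bins by GFP to DsRed ratio, PSI derived from sequencing read proportions per bin multiplied by bin number.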

In one data set the parent is B1. As to the kind of experiment: protein stability index of a GFP-peptide fusion (GPS, HEK-293T) (PSI 1-6); higher = more stable. The note with it: c terminus: a fixed tail appended.
With CDDKLTLFCEVSVVQDSVNISGHT [P1C], the protein stability index is 1.93.
With NDDKLTLFCEVSVVQDSVNISGHT [P1N], the protein stability index was 2.42.
The same measure, in the same setting: in the case of RDDKLTLFCEVSVVQDSVNISGHT [P1R] it was 2.1; in that of IDDKLTLFCEVSVVQDSVNISGHT [P1I], 3.71; in that of QDDKLTLFCEVSVVQDSVNISGHT [P1Q], 2.02.
As to LDDKLTLFCEVSVVQDSVNISGHT [P1L], the protein stability index worked out at 2.2.
Same read-out and setting: under ADDKLTLFCEVSVVQDSVNISGHT [P1A] stands 1.81; under EDDKLTLFCEVSVVQDSVNISGHT [P1E], 2.2; under MDDKLTLFCEVSVVQDSVNISGHT [P1M], 1.81.
Still for that read-out and setting: in the case of HDDKLTLFCEVSVVQDSVNISGHT [P1H] it was 2.18; in that of KDDKLTLFCEVSVVQDSVNISGHT [P1K], 2.02; in that of DDDKLTLFCEVSVVQDSVNISGHT [P1D], 2.17.
On to FDDKLTLFCEVSVVQDSVNISGHT [P1F], for which the protein stability index worked out at 2.36.
Same read-out and setting: in the case of GDDKLTLFCEVSVVQDSVNISGHT [P1G] it was 1.99.

The variants in a further data set derive from B2. The data set is described as above. The settings on record: c terminus: a fixed tail appended.
With NETGYLSSVECYNLETGEWRYVSS [N17G], the protein stability index is 3.67.
Same read-out and setting: under NETGYLSSVECYNLETWEWRYVSS [N17W] stands 2.25; under NETGYLSSVECYNLETIEWRYVSS [N17I], 2.31; under NETGYLSSVECYNLETPEWRYVSS [N17P], 3.42.
The same measure, in the same setting: in the case of NETGYLSSVECYNLETEEWRYVSS [N17E] it was 4.2; in that of NETGYLSSVECYNLETQEWRYVSS [N17Q], 4.06; in that of NETGYLSSVECYNLETCEWRYVSS [N17C], 2.84.
For NETGYLSSVECYNLETTEWRYVSS [N17T], the protein stability index is 3.01.
The same measure, in the same setting: in the case of NETGYLSSVECYNLETYEWRYVSS [N17Y] it was 2.64; in that of NETGYLSSVECYNLETHEWRYVSS [N17H], 3.31; in that of NETGYLSSVECYNLETMEWRYVSS [N17M], 3.19.
Turning to NETGYLSSVECYNLETVEWRYVSS [N17V], the protein stability index is 3.06.
The same measure, in the same setting: in the case of NETGYLSSVECYNLETLEWRYVSS [N17L] it was 3.66; in that of NETGYLSSVECYNLETREWRYVSS [N17R], 3.01; in that of NETGYLSSVECYNLETKEWRYVSS [N17K], 3.72.
On the same count and under the same terms, in the case of NETGYLSSVECYNLETSEWRYVSS [N17S] it was 4.14.
The same measure, in the same setting: in the case of NETGYLSSVECYNLETDEWRYVSS [N17D] it was 4.02; in that of NETGYLSSVECYNLETFEWRYVSS [N17F], 2.9.
As to NETGYLSSVECYNLETAEWRYVSS [N17A], the protein stability index came out at 2.92.
The same measure, in the same setting: under NETGYLSSVECYNLETNEWRYVCS [S23C] stands 3.22.
Consider NETGYLSSVECYNLETNEWRYVES [S23E], for which the protein stability index was 3.68.
As to NETGYLSSVECYNLETNEWRYVLS [S23L], the protein stability index came out at 2.07.
The same measure, in the same setting: under NETGYLSSVECYNLETNEWRYVNS [S23N] stands 3.98; under NETGYLSSVECYNLETNEWRYVDS [S23D], 4.24.
Same read-out and setting: in the case of NETGYLSSVECYNLETNEWRYVKS [S23K] it was 3.27.
On the same count and under the same terms, under NETGYLSSVECYNLETNEWRYVGS [S23G] stands 4.02.
For NETGYLSSVECYNLETNEWRYVAS [S23A], the protein stability index is 3.19.
Still for that read-out and setting: under NETGYLSSVECYNLETNEWRYVQS [S23Q] stands 3.73; under NETGYLSSVECYNLETNEWRYVRS [S23R], 2.87; under NETGYLSSVECYNLETNEWRYVYS [S23Y], 3.71.
In the case of NETGYLSSVECYNLETNEWRYVMS [S23M], the protein stability index is 3.59.
NETGYLSSVECYNLETNEWRYVTS [S23T]: the protein stability index is 3.38.
Same read-out and setting: in the case of NETGYLSSVECYNLETNEWRYVIS [S23I] it was 4.09; in that of NETGYLSSVECYNLETNEWRYVHS [S23H], 3.26.
Consider NETGYLSSVECYNLETNEWRYVVS [S23V], for which the protein stability index came to 3.76.
Same read-out and setting: in the case of NETGYLSSVECYNLETNEWRYVPS [S23P] it was 3.39; in that of NETGYLSSVECYNLETNEWRYVFS [S23F], 3.67; in that of NETGYLSSVECYNLENNEWRYVSS [T16N], 3.52.
Regarding NETGYLSSVECYNLESNEWRYVSS [T16S], the protein stability index came to 3.8.
On the same count and under the same terms, in the case of NETGYLSSVECYNLEMNEWRYVSS [T16M] it was 2.66; in that of NETGYLSSVECYNLEFNEWRYVSS [T16F], 2.71; in that of NETGYLSSVECYNLEKNEWRYVSS [T16K], 2.96.
Still for that read-out and setting: in the case of NETGYLSSVECYNLEDNEWRYVSS [T16D] it was 4.07; in that of NETGYLSSVECYNLEHNEWRYVSS [T16H], 3.26.
Consider NETGYLSSVECYNLECNEWRYVSS [T16C], for which the protein stability index is 3.58.
NETGYLSSVECYNLERNEWRYVSS [T16R]: the protein stability index stood at 3.17.
Same read-out and setting: under NETGYLSSVECYNLEINEWRYVSS [T16I] stands 2.48; under NETGYLSSVECYNLEENEWRYVSS [T16E], 3.83.
With NETGYLSSVECYNLEPNEWRYVSS [T16P], the protein stability index was 2.89.
The same measure, in the same setting: under NETGYLSSVECYNLELNEWRYVSS [T16L] stands 2.63; under NETGYLSSVECYNLEGNEWRYVSS [T16G], 3.83.
Still for that read-out and setting: under NETGYLSSVECYNLEVNEWRYVSS [T16V] stands 3.
Consider NETGYLSSVECYNLEWNEWRYVSS [T16W], for which the protein stability index amounted to 2.05.
Take NETGYLSSVECYNLEQNEWRYVSS [T16Q]: the protein stability index was found to be 4.16.
Consider NETGYLSSVECYNLEYNEWRYVSS [T16Y], for which the protein stability index stood at 2.8.
Same read-out and setting: in the case of NETGYLSSVECYNLETNEWRYVSD [S24D] it was 3.83; in that of NETGYLSSVECYNLETNEWRYVSL [S24L], 3.41.
The same measure, in the same setting: in the case of NETGYLSSVECYNLETNEWRYVSP [S24P] it was 4.2; in that of NETGYLSSVECYNLETNEWRYVSG [S24G], 3.82; in that of NETGYLSSVECYNLETNEWRYVSK [S24K], 4.28.
The same measure, in the same setting: in the case of NETGYLSSVECYNLETNEWRYVSW [S24W] it was 3.44.
On to NETGYLSSVECYNLETNEWRYVSI [S24I], for which the protein stability index was 3.02.
The same measure, in the same setting: in the case of NETGYLSSVECYNLETNEWRYVSA [S24A] it was 4.1; in that of NETGYLSSVECYNLETNEWRYVSE [S24E], 3.77; in that of NETGYLSSVECYNLETNEWRYVSV [S24V], 3.38.
Same read-out and setting: in the case of NETGYLSSVECYNLETNEWRYVSQ [S24Q] it was 3.6.
The same measure, in the same setting: under NETGYLSSVECYNLETNEWRYVSY [S24Y] stands 3.19.
In the case of NETGYLSSVECYNLETNEWRYVSR [S24R], the protein stability index came to 3.61.
On the same count and under the same terms, in the case of NETGYLSSVECYNLETNEWRYVSM [S24M] it was 3.93; in that of NETGYLSSVECYNLETNEWRYVSN [S24N], 3.91.
The same measure, in the same setting: in the case of NETGYLSSVECYNLETNEWRYVST [S24T] it was 3.65; in that of NETGYLSSVECYNLETNEWRYVSC [S24C], 4; in that of NETGYLSSVECYNLETNEWRYVSH [S24H], 3.82.
Same read-out and setting: under NETGYLSSVECYNLETNEWRYVSF [S24F] stands 3.94; under NETGYLSSVECYNLETNEWRGVSS [Y21G], 3.14; under NETGYLSSVECYNLETNEWRPVSS [Y21P], 3.21.
With NETGYLSSVECYNLETNEWRIVSS [Y21I], the protein stability index was 2.87.
In the case of NETGYLSSVECYNLETNEWRMVSS [Y21M], the protein stability index amounted to 3.82.
Same read-out and setting: under NETGYLSSVECYNLETNEWRTVSS [Y21T] stands 3.93; under NETGYLSSVECYNLETNEWRAVSS [Y21A], 3.79.
